The values that follow come from patent US20230212285A1.

Positions count from the first letter of the chain named.

The assay concerns the target human C-KIT-Fc protein (human) (UniProt P10721). Put plainly: direct ELISA, IgG at 1 µg/ml. (In general: ELISA stands for enzyme-linked immunosorbent assay.)

B1: E-C2 (antibody, human IgG1, V domains shown)
VH: QVQLVQSGAEVKKPGASVKVSCKASGYTFTDYYMNWVRQAPGQGLEWMGRIYPGSGNTYYAQKFQGRVTMTRDTSTSTVYMELSSLRSEDTAVYYCARGVYYLDYWGQGTLVTVSS
VL: DIQMTQSPSSLSASVGDRVTITCRASQGIRTNVAWLQQKPGKAPKSLIYSASYRQSGVPSRFSGSGSGTDFTLTISSLQPEDFATYYCQQYNSYPRTFGGGTKVEIK
B1 had an OD450 nm of more than 1.8 OD450 nm.

B2: MH1 IgG1 (antibody, V domains shown)
VH: B1 VH with L103Y
VL: B1 VL with V33L, L36F, S50A, Y53S, R54L
Turning to B2, the OD450 nm is more than 1.8 OD450 nm.
